Assay results reported in article PMC8395244, “The Oxoglutarate Binding Site and Regulatory Mechanism Are Conserved in Ammonium Transporter Inhibitors GlnKs from Methanococcales” (International Journal of Molecular Sciences, 2021).

Biological target: the molecule itself
Assay: crystal structure; sitting drop at 18 °C; crystallised with or without 2 mM ATP, 2 mM 2OG and 2 mM MgCl2; solved by molecular replacement with PDB 2J9D

B1: GlnK1 from Methanocaldococcus jannaschii without a C-terminal tag (MjGlnK1^woT) (natural protein)
chain: MKKVEAIIRPEKLEIVKKALSDAGYVGMTVSEVKGRGVQGGIVERYRGREYIVDLIPKVKIELVVKEEDVDNVIDIICENARTGNPGDGKIFVIPVERVVRVRTKEEGKEAL
notes: GlnK1, PII-family protein, of Methanocaldococcus jannaschii strain DSM 2661; codon-optimised synthetic gene cloned NdeI/XhoI in pET-24b(+) with a stop codon upstream of the XhoI site, so without a tag; Produced and crystallised without a tag; the crystals came from the gel filtration pool that eluted at 66 mL; also called MjGlnK1^woT-Mg-ATP/2OG; MjGlnK1 with ATP, Mg and 2OG; source: E. coli …
stoichiometry N: 3
